Test results from the nanobody polyreactivity screen of Harvey et al. (2022).

Assay: yeast display, Sf9 membrane polyspecificity reagent, FACS + sequencing; frameworks hold sequencing errors
Outline: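 Genes from sorted yeast were amplified by colony PCR, read by MiSeq 2 × 250 sequencing and filtered on CDR length. These cells carried a synthetic nanobody library in Saccharomyces cerevisiae BJ5465 and were sorted by FACS into low and high (top ~1%) gates on anti-HA and streptavidin fluorescence. Polyreactivity is labelled according to the gate of origin.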

Sequence	polyreactivity (PSR sort gate)
QVQLVESGGGLVQAGGSLRLSCAASGIIFRYYAMGWYRQAPGKERELVAVITRSGGSTYADSVKGRFTISRDNAKNTVYLQMNSLKPEDTAVYYCAAQWYLGYATRWRGGYWGQGTQVTVSS	high polyreactivity
QVQHVESGGGLVQAGGSLRLSCAASGSTFYGNTMGCYRQAPGKERELVAAISIRGTRTYYADSVKGRFTISRDNAKNTVYLQMNSLKPEDTAVYYCNAVTFPHNYDYWGQGTQVTVSS	high polyreactivity
QVQLVESGGGLDQAGGSLRLSCAASGSTFVVNAMGWYRQAPGKERELVAAIRNSGSTTYADSVKGRFTISRDNAKYTVYLQMNSLKPEDTAVYYCATDFSATVTAVQINPYDYWGQGTQVTVSS	low polyreactivity
QDQLVESGGGLVQAGGSLRLSCAASGSIFYYYAMGWYRQAPGKERELVASISRSGGSTFYADSVKGRFTISRDNAKNSVYLQMNRLKPEDTAVSYCATGWYYSPYNYWGQGTQVTVSS	high polyreactivity
QVQLVESGGGLVQAGGSLRLSCAASGSTLLSYTMGWYRQAPGKERELVASITTSGGSTYYADSVKGRFTISRDNAKNTVYLQMNSLKPEDTAVYYWGQGTQVTVSS	low polyreactivity
QVQLVESGGGLVQAGGSLRLSCAGSGSIFGVYDLGWYRQAPGKERELVAVINSNGGSTYYADSVKGRFTISRDNAKNTVYLQMNSLKPEDTAVYYCAADYQSYVYIGYGYWGQGTQVTVSS	low polyreactivity
QVQLQESGGGLVQAGGSLRLSCAASGSISRYYDMGWYRQAPGKELEFVAGISGGAITYYADSVKGRFTISRDNAKNTVYLQMNSLKPEDTAVYYCAADTGVYQYHSYWGQGTQVTVSS	low polyreactivity
KVQLVESGGGLVQAGGSLRLSCAASGSTISGYAMGWYRQAPGKERELVAAITIGGGTYYADSVKGRFPISRDNAKNTVYLQMNSLKPEDTGVYYCNAYRRKLWYPTGMYWGQGTQVTVSW	high polyreactivity
QVQLVESGGGLVQSGGSLRLSGAASGSTYGLNAMGWYRQAPRKEMELVAAITRSDITNYADSVNGRFRISRDNAKNTVYLQMNSLKPEDTAVYYCNKTPDRHRRYFGYGYWGQGTQVTVSS	low polyreactivity
QVQLVESGGGLVQAGGSLRLSCAASGSTSTTYTMGWYRQAPGKERELVAAISYSGGSTYYADSVKGRFTISRDNAKHTVYLQMNSLKPEDTAVYYCAAQSFVGWREYESWGQGTQVTVSS	high polyreactivity
QVQLVESGGGLVQAGGSLRLSCAASGITFYRYFMGWYRPAPGKERELVAAISRGGGSTYYADSVKGRFTISRDNAKNTVYLQMNSLKPEDTAVYYCNARYLYRHDYWGQGTQVTVSS	high polyreactivity
QDQLVESGGGLVQAGGRLRLSCAASGLIFENYAMGWYRQSPGKERDLVAAITTSGGSTYYADSVKGRFTISRDNAKNTVYLQMNSLKPEDTAVYDCAAVGVRSRYYGYDYWGQGTLVTVSS	high polyreactivity
QVQLVESGGGLVQAGGSLRLSCAASGFTFRGYDMGWYRQAPGKERELVATISSGGRTYYADSVKGRFTISRDNAKNTVYLQMNSLKPEDTAVYYCAAPRFGRLAFDFWGQGSQVTVSS	low polyreactivity
QVQLVESGRGLVQAGGSLRLSCAASGSTLYAYAMGWYRQAPGKESELVAAIRRGGRTNYADSVKGRFTISRDNAKNTVYLQMNSLKPEDTAVYYCAARGSKPYSNRLLDYWGLGTQVTVSS	high polyreactivity
QVQLVESGGGLVHAGGSLRLSSAASGSIYYYAMGWYRQAPGKERELVAAITWRGGRTYYADSVKGRFTISRDNAKNNVYLQMNILKPEDTAVYYCNDVAPGKYNHWGQGTQVNVSS	high polyreactivity
QVQLVESGGGLVQAGGSLRLSCAASGRTFSINAMGWYRQAPGKERELVASISSRGTRTNYADSVKGRFTISRDNAKNTVYLQMNSLKPEDTAVYYCAADRYYPYYSAWREYEYWGQGTQVTVSS	high polyreactivity
QVQLVESGGGLVQAGGSLRLSCAASGSTFFDYAMGWYRQAPGKERELVAAISRSGDTNYADSVKGRFTMSRDNAKNTVYLHMNSLKPEDTAVYYCAKYWAYRRHWVGFYYWGQGTLVTVSS	low polyreactivity
QVQHVESGGGLVQAGGSLRLSCAASGRIFYNYAMGWYRQAPGKEREFVADIDFNGGSTYYADSGKGRFTISRDNAKTTVYLQMNSLKPDDTAVYYSAAEQDDARYNAWWIGPMYSWGQGTQVTVSS	low polyreactivity
QVQLVESGGGLVQAGGSLRLSCAASGSTSERYDMGWYRQAPGKERELVATITWSGGDTHYADSVKGRFTISRDNAKNTVYLQMNSLKPVDTAVYYCAAEYTFVWGLWYDYWGQGTQVTVSS	low polyreactivity
QVQLVESGGGLLQAGGSLRLSCADSGSTFGANSLRWYIQAPGKEREFVAAISGSGTTTYYADSVKGRFTISRDNAKNTFYLQMHRLKPEDTAVYYCDKTRIAHWLEYWGQGTQVTVSS	low polyreactivity
QVQLVESGGGLVQAGRSLRLSCAASGFIFKSYAMGWYRQAPAKERELVAAISFSGGSTYYADSVKGLFTISRDNAKNTVYLQMNSLKPEDSAVYYCAADPRNGEYYYWGQGTQVTVSS	high polyreactivity
QVQLVESGGGLVQAGGSLRLSCAASGRTFGDNAMGWYRQAPGKERELVAAISSGDSTNYADSVKGRFTISRDNAKNTVYLQMNSLKPEDTAVYYCAAEFSHTYVYVDLDYWGQGTQVTVSS	low polyreactivity

Sequence	polyreactivity (PSR sort gate)
QVQLVESGGGLVQAGGSLRLSCAASGFTFLYNAMGWYRQAPGKERELVASINSGGSTNYADSVKGRFTISRDKSKNTVYLQMNRLKPEDTAVYYCNAKRHVRKGDYGGQGTQVTVSS	low polyreactivity
QVQLVESGGGLVQAGGSLRLSCAASGRIVSRYAMGCYRQAPGKERELVADISSSGGSTYYADSVKGRFTISRDNAKNTVYLQMNSMKPEDTAVYDCAVRKKRQYTGDYWGQGTQETVSS	high polyreactivity
QVQLVESGGGLVQAGGSLRLTCAASGFTFRYYAMGWSRQAPGKERELVATISTGSGVSTYYADSVKGRFTISRDNAKNTVYLQMNSLKPEDTAVYYCAAVFGWRRYVTYDYWGQGTQVTVSS	low polyreactivity
QVQLVESGGGLVQAGGSLRLSCAASGFTFDRNAMGWYRQATWKERELVAAITWTGGSTYYADSVKGRFTISRDNAKNTVYLQMNSLKPEDTAVYYCAATLPYSRGWFYYWGQGTQVTVSS	high polyreactivity
QVQLVESGGGLVQAGGSLRLSCAASGRTFRTNAMGWYRQAPGKESELVADITYSGDSTYDADSVKGRFTISRDNAKNNVYLQMNSLKPEDTAVYYCNARLLSGPGYDYWGQGTQVTVSS	low polyreactivity
QVQLVESGGGLVQAGGSLRLSCAASGNTFTWYTIGWYRQAPGKERELVAVITSDGSTYYADSVKGRFTISRDNAKNTVYLQMNSLKPEDTAVYYCNALSADWYPEVDYWGQGTQVTVSS	low polyreactivity
QVQLVESGGGLVQAGGSLRLSCAASGRTFQINAMGWYRQAPGKERELVAAITWSGGSTYYADSVKRRFTISPDNAKNPVYLQMNSLKPADTALYYCNTRYRAYATLNLIAGYNSWGQGTQVTVSS	low polyreactivity
QVQLVESGGGLVQAGGSLRLSCAASGFIFAWYAMGWYRQAPGKERELVAAIDYSDGTTYYADSVKGRFTISRDNAKNTVYLQMNSLKPEDTAVYYCAAYNEFVYEDDYWGQGTQVTVSA	low polyreactivity
QVQLVESGGGLVQAGGSLRLSCAASASIFYRYAMGWFRQAPGKERELVAAISWRVTSTYYADSVKGRFTISRDNSKNTVYLQMNSLKPEDTAVYYCATAGTYTGGEGYWGQGTQVTVSS	high polyreactivity
QVQLVESWGGLVQAGGSLRLSCAASGIIRSNAMGWYRQAPGKERELVAVISSSGGRTYYADSVKGRFTISRDNAKNTVYLQMNSLKPEDTAVYYCAAQVQVGAFSYYYWGQGTQVTVSS	high polyreactivity
QVQLVESGGGLVQAGGSLRLSCAASGSIIGTYAMGWYRQAPGKERELVAAISSSSTRTYYADSVKGRFTISRDTAKNTVYLQMNSLKPEDTAVYYCAATFTAVRGKYGYWGQGTQVTVSS	high polyreactivity
QVQLVESGGGLVQAGGSLRLSCAASGLIFGYNAMGWYRQAPGKERELVASINWSTGRTRYADSVKGRFTISRDNAKNTVYLQMNSLKPEDTAVYYCAARLYNPYPYEYWGQGTQVTVSS	high polyreactivity
QVQLVESGGGLVQAGGSLRLSCAASGFIFGGNTMGWSRQAPGKERELVASITLSGGRTHYADSVKGRFTISRDNAKNTVYLQMNSLKPEDTAVYYCARSLASYLHAGDTEYNGSYWGQGTQVTVSS	low polyreactivity
QVQLVESGGGLVQAGGSLRLSCAASGFIFWEYAMGWYRQAPGKERELVAVISYRGGSTYYADSVKGRFTISRDNAKNTVYLQMNSLKPEDTAVYYCNADTIPDGEDRYDYWGQGTQVTVSS	low polyreactivity
QVQLVESGGGLVQAGGSLRLSCAASGLIFPRYAMGWYRQAPGKERELVAAITSRAGSTYYADSVKGRFTISRDNAKNTVYLQMNSLKPEDTAVYYCAAVSDGWDGDMYYWGQGTQVTVSS	low polyreactivity
QVQLVESGGGLVQAGGSLRLSCAASGFTFWYYAMGWYRQAPGKERELVAAISRSGTSTYYADSVKGRFTISRDNAKNTVFLQMNCLKPEDSAVYYCNVLRVNSITYLMDYWVQGTQVTVSS	high polyreactivity
QVQLVESGGGLLQAGGSLRLICAASGRIFQTYAMGWYRQAPGKERELVARIRLSGGSTYSADSVKGRFTISRDNAKNTGYLQKNSQKPEDTAVYSCAARFSRARFTDPYYYWGQGTQVTVSS	high polyreactivity
QVHLVESGGGLVQAGGSLRLICAASGFTFDFYAMGWYRQAPGKERELVAAISKNDGTTYYADSVKGRFTISRDNAKNTVYLQMYSLKPEDTAVYYCAAESGYPVYTYVSSGDYWGQGTQVTVSS	low polyreactivity
QVQLVESGGGLVQAGGSLRLSCAASGRIFFVNTMGWYRQAPGNERELVATLSWSGGSTYYADSVKGRFTISRDNAKNTVYLQMNSLKPEDTAVYYCAAVGYTTYRRYDYWGQGTQVTVSS	low polyreactivity
QVQLVESGGGLVQAGGSLRLSCAASGFIYGYYAKGWYRQAPGKARELVAAISYSGGSTYYADSVKGRFTISRDNAKNTVYLQKNSLKPEDSAVYYCAAVYLGYIYSRYDYWGQGTQVTVSS	low polyreactivity
PVQLVESGGGLVQAGGSLRLSCAASGSIFGYYAMGWYRQAPGKERELVAAISSSGASTYYADSVKGRFTISRDNAKNTVSLQMNSLKPEDTAVSYCIAARRYPTRGGYWGQGTQVTVSS	high polyreactivity
